What was measured:
[1] = target: T1, cyno CDH3 (cyno); assay: cell-based affinity, flow cytometry on target-transfected CHO cells, nonlinear regression (one site - specific binding), mean of three measurements
T1 construct: whole, on cells; On transfected CHO cells; also called cy CDH3
Experimental: (§1) Cell-based affinity of CDH3 MSLN dual targeting antigen-binding molecules was determined by nonlinear regression (one site—specific binding) analysis. CHO cells expressing human CDH3, cyno CDH3, human MSLN or cyno MSLN were incubated with decreasing concentrations of CDH3 MSLN dual targeting antigen-binding molecules (12.5 nM on CDH3 cell lines, 800 nM on MSLN cell lines, step 1:2, 11 steps) for 16 h at 4° ° C. Bound CDH3 MSLN dual targeting antigen-binding molecules were detected with Alexa Fluor 488-conjugated AffiniPure Fab Fragment Goat Anti-Human IgG (H+L). Fixed cells were stained with DRAQ5, Far-Red Fluorescent Live-Cell Permeant DNA Dye and signals were detected by fluorescence cytometry. Respective equilibrium dissociation constant (Kd) values were calculated with the one site—specific binding evaluation tool of the GraphPad Prism software. Mean Kd values and affinity gaps were calculated with Microsoft Excel.
(§2) Cell-based affinities of CDH3 MSLN dual targeting antigen-binding molecules on target-transfected CHO cells were determined by nonlinear regression (one site - specific binding) analysis. Mean Kd values were calculated from three independent measurements. Affinity gaps were determined by dividing the cyno Kd by the human Kd.

[2] = target: T2, cyno MSLN (cyno); assay: as above
T2 construct: whole, on cells; On transfected CHO cells; also called cy MSLN
Experimental: as §1, §2

[3] = target: T3, human CDH3 (human, UniProt P22223 108-829); assay: as above
T3 construct: also called hu CDH3; Cadherin-3
Experimental: as §1, §2

[4] = target: T3, human CDH3; assay: cell-based or functional assay
[5] = target: T3, human CDH3; assay: cell-based or functional assay; remark: listed apart in the source
[6] = target: T4, human MSLN (mesothelin) (human, UniProt Q13421 37-598); assay: cell-based or functional assay
[7] = target: T5, human CDH3 (Cadherin-3, P-Cadherin) (human, UniProt P22223 108-829); assay: cell-based or functional assay
[8] = target: T4, human MSLN (mesothelin); assay: cell-based or functional assay; remark: listed apart in the source
[9] = target: T5, human CDH3 (Cadherin-3, P-Cadherin); assay: cell-based or functional assay; remark: listed apart in the source

Row | Binder | Kd [1] | Kd [2] | Kd [3] | EC50 on HCT 116 KO MSLN (cytotoxicity; cells CDH3+, MSLN-) [4] | EC50 on HCT 116 wt (cytotoxicity; cells CDH3+, MSLN+) [4] | EC50 (cytotoxicity) on double positive cells; column head printed 'EC50 CHO hu CDH3 (+) & MSLN (+)'; value is that of HCT 116 wt in Table 46 [5] | EC50 (cytotoxicity); column head printed 'EC50 CHO hu MSLN (+)', table title HCT 116; value is that of HCT 116 KO MSLN in Table 46 [5] | fold gap of column 2 (HCT 116 KO MSLN by Table 46) against double positive cells [5] | cytotoxicity EC50, GSU KO CDH3 cells [6] | cytotoxicity EC50, GSU KO MSLN cells [7] | cytotoxicity EC50, HCT 116 KO CDH3 cells [8] | cytotoxicity EC50, HCT 116 KO MSLN cells [9]
1 | CH3 15-E11 CC × I2L × G4 × scFc × G4 × MS 15-B12 CC × I2L_GQ (bispecific antibody, Single chain: CDH3 scFv - CD3 scFv (I2L) - scFc - MSLN scFv - CD3 scFv (I2L)) QVQLVQSGAEVKKPGASVKVSCKASGYTFTNYWMNWVRQAPGQCLEWMGNIAYGVKGTNYNQKFQGRVTMTVDTSSSTAYMELSRLRSDDTAVYYCATRYFYVMDYWGQGTLVTVSSGGGGQGGGGQGGGGQDIQMTQSPSSLSASVGDRVTITCRASQDISNYLNWYQQKPGKVPKLLIYYTSRLHSGVPSRFSGSGSGTDFTLTISSLQPEDVATYYCVQYAQFPLTFGCGTKVEIKSGGGGQEVQLVESGGGLVQPGGSLKLSCAASGFTFNKYAMNWVRQAPGKGMEWVARIRSKYNNYATYYADAVKDRFTISRDDSKNTLYLQMNNLKTEDTAVYYCVRAGNFGSSYISYFAYWGQGTLVTVSSGGGGQGGGGQGGGGQQTVVTQEPSLTVSPGGTVTITCGSSTGAVTSGNYPNWIQKKPGQAPRGLIGGTKFLAPGTPARFSGSLEGGKAALTLSGVQPEDEAEYYCVLYYSNRWVFGSGTKLTVLGGGGCPPCPAPELLGGPSVFLFPPKPKDTLMISRTPEVTCVVVDVSHEEPEVKFNWYVDGVEVHNAKTKPCEEQYGSTYRCVSVLTVLHQDWLNGKEYKCKVSNKALPAPIEKTISKAKGQPREPQVYTLPPSREEMTKNQVSLTCLVKGFYPSDIAVEWESNGQPENNYKTTPPVLDSDGSFFLYSKLTVDKSRWQQGNVFSCSVMHEALHNHYTQKSLSLSPGKGGGGQGGGGQGGGGQGGGGQGGGGQGGGGQCPPCPAPELLGGPSVFLFPPKPKDTLMISRTPEVTCVVVDVSHEEPEVKFNWYVDGVEVHNAKTKPCEEQYGSTYRCVSVLTVLHQDWLNGKEYKCKVSNKALPAPIEKTISKAKGQPREPQVYTLPPSREEMTKNQVSLTCLVKGFYPSDIAVEWESNGQPENNYKTTPPVLDSDGSFFLYSKLTVDKSRWQQGNVFSCSVMHEALHNHYTQKSLSLSPGKGGGGQVQLQESGPGLVKPSETLSLTCTVSGGSISSSSYFWGWIRQPPGKCLEWIGNIYYSGSSNYNPSLKSRVTISVDTSKNQFSLKLSSVTAADTAVYYCARLPRGDRDAFDIWGQGTMVTVSSGGGGQGGGGQGGGGQDIVMTQSPSSLSASVGDRVTITCRASQGISNYLAWYQQKPGKVPKLLIYAASTLQSGVPSRFSGSGSGTDFTLTISSLQPEDFATYYCQQSYSTPFTFGCGTKVEIKSGGGGQEVQLVESGGGLVQPGGSLKLSCAASGFTFNKYAMNWVRQAPGKGMEWVARIRSKYNNYATYYADAVKDRFTISRDDSKNTLYLQMNNLKTEDTAVYYCVRAGNFGSSYISYFAYWGQGTLVTVSSGGGGQGGGGQGGGGQQTVVTQEPSLTVSPGGTVTITCGSSTGAVTSGNYPNWIQKKPGQAPRGLIGGTKFLAPGTPARFSGSLEGGKAALTLSGVQPEDEAEYYCVLYYSNRWVFGSGTKLTVL | 0.19 nM | 51.4 nM | 0.16 nM | 8.7 pM | 0.07 pM | 0.071 pM | 8.7 pM | 122 fold | – | – | – | –
2 | CH3 15-E11_1_VAG_CC × I2L × G4 × scFc × G4 × MS 15-B12 CC × I2L clipopt_DI (bispecific antibody, Single chain) QVQLVQSGAEVKKPGASVKVSCKASGYTFTNYWMNWVRQAPGQCLEWMGNIAYGVAGTNYNQKFQGRVTMTVDTSSSTAYMELSRLRSDDTAVYYCATRYFYVMDYWGQGTLVTVSSGGGGQGGGGQGGGGQDIQMTQSPSSLSASVGDRVTITCRASQDISNYLNWYQQKPGKVPKLLIYYTSRLHSGVPSRFSGSGSGTDFTLTISSLQPEDVATYYCVQYAQFPLTFGCGTKVEIKSGGGGQEVQLVESGGGLVQPGGSLKLSCAASGFTFNKYAMNWVRQAPGKGMEWVARIRSKYNNYATYYADAVKDRFTISRDDSKNTLYLQMNNLKTEDTAVYYCVRAGNFGSSYISYFAYWGQGTLVTVSSGGGGQGGGGQGGGGQQTVVTQEPSLTVSPGGTVTITCGSSTGAVTSGNYPNWIQKKPGQAPRGLIGGTKFLAPGTPARFSGSLEGGKAALTLSGVQPEDEAEYYCVLYYSNRWVFGSGTKLTVLGGGGCPPCPAPELLGGPSVFLFPPKPKDTLMISRTPEVTCVVVDVSHEEPEVKFNWYVDGVEVHNAKTKPCEEQYGSTYRCVSVLTVLHQDWLNGKEYKCKVSNKALPAPIEKTISKAKGQPREPQVYTLPPSREEMTKNQVSLTCLVKGFYPSDIAVEWESNGQPENNYKTTPPVLDSDGSFFLYSKLTVDKSRWQQGNVFSCSVMHEALHNHYTQKSLSLSPGKGGGGQGGGGQGGGGQGGGGQGGGGQGGGGQCPPCPAPELLGGPSVFLFPPKPKDTLMISRTPEVTCVVVDVSHEEPEVKFNWYVDGVEVHNAKTKPCEEQYGSTYRCVSVLTVLHQDWLNGKEYKCKVSNKALPAPIEKTISKAKGQPREPQVYTLPPSREEMTKNQVSLTCLVKGFYPSDIAVEWESNGQPENNYKTTPPVLDSDGSFFLYSKLTVDKSRWQQGNVFSCSVMHEALHNHYTQKSLSLSPGKGGGGQVQLQESGPGLVKPSETLSLTCTVSGGSISSSSYFWGWIRQPPGKCLEWIGNIYYSGSSNYNPSLKSRVTISVDTSKNQFSLKLSSVTAADTAVYYCARLPRGDRDAFDIWGQGTMVTVSSGGGGQGGGGQGGGGQDIVMTQSPSSLSASVGDRVTITCRASQGISNYLAWYQQKPGKVPKLLIYAASTLQSGVPSRFSGSGSGTDFTLTISSLQPEDFATYYCQQSYSTPFTFGCGTKVEIKSGGGGQEVQLVESGGGLVQPGGSLKLSCAASGFTFNKYAMNWVRQAPGKGMEWVARIRSKYNNYATYYADAVKDRFTISRDDSKNTLYLQMNNLKTEDTAVYYCVRAGNFGSSYISYFAYWGQGTLVTVSSGGGGQGGGGQGGGGQQTVVTQEPSLTVSPGGTVTITCGSSTGAVTSGNYPNWIQKKPGQAPRGLIGGTKFLAPGTPARFSGSLEGGKAALTLSGVQPEDEAEYYCVLYYSNRWVFGSGTKLTVL | 0.57 nM | 50.3 nM | 0.51 nM | – | – | – | – | – | – | – | – | –
3 | MS 15-B12 CC × I2L × G4 × scFc × G4 × CH3 15-E11 CC × I2L_GQ (bispecific antibody) QVQLQESGPGLVKPSETLSLTCTVSGGSISSSSYFWGWIRQPPGKCLEWIGNIYYSGSSNYNPSLKSRVTISVDTSKNQFSLKLSSVTAADTAVYYCARLPRGDRDAFDIWGQGTMVTVSSGGGGQGGGGQGGGGQDIVMTQSPSSLSASVGDRVTITCRASQGISNYLAWYQQKPGKVPKLLIYAASTLQSGVPSRFSGSGSGTDFTLTISSLQPEDFATYYCQQSYSTPFTFGCGTKVEIKSGGGGQEVQLVESGGGLVQPGGSLKLSCAASGFTFNKYAMNWVRQAPGKGMEWVARIRSKYNNYATYYADAVKDRFTISRDDSKNTLYLQMNNLKTEDTAVYYCVRAGNFGSSYISYFAYWGQGTLVTVSSGGGGQGGGGQGGGGQQTVVTQEPSLTVSPGGTVTITCGSSTGAVTSGNYPNWIQKKPGQAPRGLIGGTKFLAPGTPARFSGSLEGGKAALTLSGVQPEDEAEYYCVLYYSNRWVFGSGTKLTVLGGGGCPPCPAPELLGGPSVFLFPPKPKDTLMISRTPEVTCVVVDVSHEEPEVKFNWYVDGVEVHNAKTKPCEEQYGSTYRCVSVLTVLHQDWLNGKEYKCKVSNKALPAPIEKTISKAKGQPREPQVYTLPPSREEMTKNQVSLTCLVKGFYPSDIAVEWESNGQPENNYKTTPPVLDSDGSFFLYSKLTVDKSRWQQGNVFSCSVMHEALHNHYTQKSLSLSPGKGGGGQGGGGQGGGGQGGGGQGGGGQGGGGQCPPCPAPELLGGPSVFLFPPKPKDTLMISRTPEVTCVVVDVSHEEPEVKFNWYVDGVEVHNAKTKPCEEQYGSTYRCVSVLTVLHQDWLNGKEYKCKVSNKALPAPIEKTISKAKGQPREPQVYTLPPSREEMTKNQVSLTCLVKGFYPSDIAVEWESNGQPENNYKTTPPVLDSDGSFFLYSKLTVDKSRWQQGNVFSCSVMHEALHNHYTQKSLSLSPGKGGGGQVQLVQSGAEVKKPGASVKVSCKASGYTFTNYWMNWVRQAPGQCLEWMGNIAYGVKGTNYNQKFQGRVTMTVDTSSSTAYMELSRLRSDDTAVYYCATRYFYVMDYWGQGTLVTVSSGGGGQGGGGQGGGGQDIQMTQSPSSLSASVGDRVTITCRASQDISNYLNWYQQKPGKVPKLLIYYTSRLHSGVPSRFSGSGSGTDFTLTISSLQPEDVATYYCVQYAQFPLTFGCGTKVEIKSGGGGQEVQLVESGGGLVQPGGSLKLSCAASGFTFNKYAMNWVRQAPGKGMEWVARIRSKYNNYATYYADAVKDRFTISRDDSKNTLYLQMNNLKTEDTAVYYCVRAGNFGSSYISYFAYWGQGTLVTVSSGGGGQGGGGQGGGGQQTVVTQEPSLTVSPGGTVTITCGSSTGAVTSGNYPNWIQKKPGQAPRGLIGGTKFLAPGTPARFSGSLEGGKAALTLSGVQPEDEAEYYCVLYYSNRWVFGSGTKLTVL | – | – | – | – | – | – | – | – | 115 pM | 502 pM | 44.5 pM | 1 pM
